± gives the uncertainty stated by the source.
Assay: protein stability index of a GFP-peptide fusion (yeast GPS) (PSI 1-4); higher = more stable; sorted into four equal gates, so the index is relative within each strain
Method in brief: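 Sequencing reads from sorted gates were used to score each peptide. The library consisted of tiled 17-residue yeast protein peptides fused downstream of GFP on a Cherry-expressing plasmid, pooled and carried in yeast. Mid-log cultures in leucine-free medium were split into four equal gates by GFP/Cherry ratio, and each gate's plasmids were PCR-amplified and Illumina-sequenced. The protein stability index adds up, over all gates, the read frequency multiplied by the gate number.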

In the case of EDPNSAAFDEVEYKLTF [DIS3], the protein stability index (doa10∆) is reported as 1.18 ± 0.12, the protein stability index (pdr5∆) is reported as 1.6 ± 0.29 and the protein stability index (san1∆) is reported as 1.17 ± 0.25.
In the case of DLCDVVESKFTEKIKSM [RPC19], the protein stability index (doa10∆) is reported as 3.43 ± 0.2, the protein stability index (pdr5∆) is reported as 2.9 ± 0.11 and the protein stability index (san1∆) is reported as 3.33 ± 0.1. It also gave a protein stability index (ubr1∆) of 3.44 ± 0.077.
In the case of VNGAKNLVVSGPPQSLY [FAS1], the protein stability index (doa10∆) is reported as 2.07 ± 0.1, the protein stability index (pdr5∆) is reported as 1.78 ± 0.066 and the protein stability index (san1∆) is reported as 2.03 ± 0.088. For the same sequence, the protein stability index (ubr1∆) was 2.2 ± 0.052.
GIIITDQSNVQYYLSVL [BRR2] showed a protein stability index (doa10∆) of 3.32 ± 0.2, a protein stability index (pdr5∆) of 3.44 ± 0.19 and a protein stability index (san1∆) of 3.07 ± 0.11. The protein stability index (ubr1∆) was 3.01 ± 0.13.
FSHLAGGKIINKLGNDP [BRR2] showed a protein stability index (doa10∆) of 2.94 ± 0.19, a protein stability index (pdr5∆) of 3.1 ± 0.19 and a protein stability index (san1∆) of 2.91 ± 0.085. The protein stability index (ubr1∆) was 3.02 ± 0.077.
In the case of DDHSQVINPQQLLKGLS [DSN1], the protein stability index (doa10∆) is reported as 3.17 ± 0.1, the protein stability index (pdr5∆) is reported as 2.98 ± 0.084 and the protein stability index (san1∆) is reported as 3.03 ± 0.057. It also gave a protein stability index (ubr1∆) of 3.01 ± 0.068.
In the case of MEMSEKIQFILEQMELS [RPN5], the protein stability index (pdr5∆) is reported as 2.65 ± 0.24, the protein stability index (san1∆) is reported as 2.35 ± 0.29 and the protein stability index (ubr1∆) is reported as 2.66 ± 0.19.
In the case of EGIKVVDIDDPDMMVDS [SNF2], the protein stability index (doa10∆) is reported as 3 ± 0.17, the protein stability index (pdr5∆) is reported as 3.14 ± 0.19 and the protein stability index (san1∆) is reported as 3.12 ± 0.094. The protein stability index (ubr1∆) was 2.97 ± 0.091.
Sequence SASSKEFNFTNLQAKPL [YAR002W/NUP60] has a protein stability index (doa10∆) of 2.43 ± 0.072, a protein stability index (pdr5∆) of 2.26 ± 0.068 and a protein stability index (san1∆) of 2.46 ± 0.06. It also gave a protein stability index (ubr1∆) of 2.42 ± 0.051.
Sequence VRQLYKGKKYQPKDLRA [RPL35A] has a protein stability index (doa10∆) of 3.28 ± 0.21, a protein stability index (pdr5∆) of 3.17 ± 0.12 and a protein stability index (san1∆) of 2.59 ± 0.098. The protein stability index (ubr1∆) was 2.92 ± 0.12.
IQSQVFESLYNSNDSVF [BRR2] gave a protein stability index (doa10∆) of 2.04 ± 0.053, a protein stability index (pdr5∆) of 2.31 ± 0.057 and a protein stability index (san1∆) of 1.59 ± 0.097. It also gave a protein stability index (ubr1∆) of 2.09 ± 0.046.
Sequence YRTPGSSGVLSSNIAGT [SSN2] has a protein stability index (doa10∆) of 3.35 ± 0.12, a protein stability index (pdr5∆) of 3.29 ± 0.1 and a protein stability index (san1∆) of 3.03 ± 0.14. The protein stability index (ubr1∆) was 3.38 ± 0.088.
In the case of TYNMIDAAAEKRNGDEV [ARP7], the protein stability index (doa10∆) is reported as 2.85 ± 0.066, the protein stability index (pdr5∆) is reported as 3.03 ± 0.07 and the protein stability index (san1∆) is reported as 3.13 ± 0.055. It also gave a protein stability index (ubr1∆) of 3.18 ± 0.044.
With DIEFINSLLTIVWRFIS [RPC34] the protein stability index (pdr5∆) was 2.91 ± 0.23, the protein stability index (san1∆) was 2.51 ± 0.21 and the protein stability index (ubr1∆) was 2.12 ± 0.14.
QAIITERLVEFSNVNEL [YIL149C/MLP2] gave a protein stability index (doa10∆) of 2.72 ± 0.19, a protein stability index (pdr5∆) of 3.38 ± 0.1 and a protein stability index (san1∆) of 3.58 ± 0.15. For the same sequence, the protein stability index (ubr1∆) was 3.31 ± 0.12.
For VKPLESSAKRSKNTAVS [SRP72], the protein stability index (doa10∆) was 2.7 ± 0.073, the protein stability index (pdr5∆) was 2.92 ± 0.11 and the protein stability index (san1∆) was 2.21 ± 0.096. For the same sequence, the protein stability index (ubr1∆) was 2.63 ± 0.05.
For AFSFGAKSNEDKQDGTA [YJL041W/NSP1], the protein stability index (doa10∆) was 3.24 ± 0.13, the protein stability index (pdr5∆) was 2.98 ± 0.16 and the protein stability index (san1∆) was 3 ± 0.2. It also gave a protein stability index (ubr1∆) of 3.44 ± 0.14.
In the case of LNSFAFELCSLGDKELW [YJR042W/NUP85], the protein stability index (doa10∆) is reported as 1.76 ± 0.22, the protein stability index (pdr5∆) is reported as 1.32 ± 0.12 and the protein stability index (ubr1∆) is reported as 1.34 ± 0.092.
Work on SYFYRRIHVNPSYYGVR [BRR2] yielded a protein stability index (doa10∆) of 1.5 ± 0.064, a protein stability index (pdr5∆) of 1.85 ± 0.057 and a protein stability index (san1∆) of 1.61 ± 0.07. It also gave a protein stability index (ubr1∆) of 1.76 ± 0.029.
Work on PVLSTIAFLVGLVNPKT [SWI3] yielded a protein stability index (doa10∆) of 2.98 ± 0.085, a protein stability index (pdr5∆) of 2.52 ± 0.058 and a protein stability index (san1∆) of 2.33 ± 0.066. The protein stability index (ubr1∆) was 2.86 ± 0.042.
In the case of IIPQDILDCVVTNSMRQ [YJR042W/NUP85], the protein stability index (doa10∆) is reported as 3.01 ± 0.069, the protein stability index (pdr5∆) is reported as 3.15 ± 0.072 and the protein stability index (san1∆) is reported as 3.35 ± 0.044. The protein stability index (ubr1∆) was 2.94 ± 0.063.
With SSQVREHVKELLKYSNE [RPL1A] the protein stability index (doa10∆) was 1.63 ± 0.077, the protein stability index (pdr5∆) was 2.23 ± 0.06 and the protein stability index (san1∆) was 2.47 ± 0.085. The protein stability index (ubr1∆) was 2.13 ± 0.047.
Sequence FTNELKAELDRYKRENQ [SEM1] has a protein stability index (doa10∆) of 3.09 ± 0.16, a protein stability index (pdr5∆) of 3.38 ± 0.14 and a protein stability index (san1∆) of 2.98 ± 0.11. The protein stability index (ubr1∆) was 3.41 ± 0.24.
Work on SARGSYLRVSFKNTRET [RPL17A] yielded a protein stability index (doa10∆) of 3.1 ± 0.048, a protein stability index (pdr5∆) of 2.82 ± 0.056 and a protein stability index (san1∆) of 2.77 ± 0.051. For the same sequence, the protein stability index (ubr1∆) was 2.86 ± 0.06.
For DRGIANIRNNIESQNLD [SRB4], the protein stability index (doa10∆) was 3.12 ± 0.14, the protein stability index (pdr5∆) was 3.34 ± 0.12 and the protein stability index (san1∆) was 2.98 ± 0.11. It also gave a protein stability index (ubr1∆) of 3.07 ± 0.067.
Work on YTYLYVRMLASPMLYKV [BRR2] yielded a protein stability index (doa10∆) of 1.13 ± 0.12, a protein stability index (pdr5∆) of 1.19 ± 0.21 and a protein stability index (san1∆) of 1.22 ± 0.21. The protein stability index (ubr1∆) was 1.26 ± 0.11.
